Assay [1] addresses T1, human Claudin 3 (human, UniProt O15551 1-220).
T1 construct: forced expression in DG44 or Ba/F3 cells, or endogenous on MCF7 cells; four-transmembrane tight junction protein; also called hCLDN3; hCLN3
T1 sequence: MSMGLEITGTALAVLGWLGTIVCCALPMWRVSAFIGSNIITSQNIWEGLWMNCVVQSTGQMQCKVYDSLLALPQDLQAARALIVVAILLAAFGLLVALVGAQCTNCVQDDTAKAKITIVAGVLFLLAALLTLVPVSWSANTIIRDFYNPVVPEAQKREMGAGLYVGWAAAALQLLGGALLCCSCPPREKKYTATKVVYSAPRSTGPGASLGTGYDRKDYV
The assay can be described thus: flow cytometry, hCLDN3/DG44 cells, 5 ug/mL antibody.

The target of assay [2] is T1, human Claudin 3. The assay can be described thus: flow cytometry, hCLDN3/DG44 cells, 0.1 ug/mL antibody.
The target of assay [3] is T1, human Claudin 3. The assay can be described thus: flow cytometry, hCLDN3/DG44 cells, 1 ug/mL antibody. A general note: A flow cytometer gives signals particle by particle.
The target in assay [4] is T2, human Claudin 6 with C-terminal FLAG tag (human, UniProt P56747 1-220).
T2 construct: whole, on cells; forced expression in Ba/F3 cells; also called hCLDN6; hCLN6
T2 sequence (looked up): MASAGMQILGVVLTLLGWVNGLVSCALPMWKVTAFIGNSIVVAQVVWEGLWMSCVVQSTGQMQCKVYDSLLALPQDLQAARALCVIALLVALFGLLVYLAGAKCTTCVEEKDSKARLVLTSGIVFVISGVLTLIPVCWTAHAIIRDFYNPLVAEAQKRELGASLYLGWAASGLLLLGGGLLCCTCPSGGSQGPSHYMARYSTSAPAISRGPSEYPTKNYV
The assay can be described thus: flow cytometry, hCLDN6/Ba/F3 cells, 2 ug/mL antibody. As to the method:
(§1) A monoclonal antibody was added to the respective forced expression cells, and then incubated at 4° C. for 30 minutes. After incubation, the cells were washed once with a PBS solution containing 1% fetal bovine serum, then a 150-fold dilution of an FITC-goat anti-mouse IgG (H+L) antibody (Beckman Coulter) was added, and this was incubated at 4° C. for 30 minutes. The amount of antibodies bound per cell was measured using FACSCalibur, and the X geometric mean value, which is the geometric mean of the cell fluorescence intensity, was calculated using the accessory CellQuest Pro analysis software of FACSCalibur.
(§2) The cross reactivity for human Claudin 3, human Claudin 1, human Claudin 4, human Claudin 6, and mouse Claudin 3 forcedly expressed in Ba/F3 was evaluated using at a final antibody concentration of 2 μg/mL.

In assay [5] the target is T1, human Claudin 3. The assay can be described thus: flow cytometry, MCF7 cells (endogenous Claudin 3), 1 ug/mL antibody. As to the method: as §1
(§3) The affinity of the antibodies to the MCF7 breast cancer cell line (ATCC, HTB-22), which endogenously expresses Claudin 3, was evaluated by the flow cytometry method.

A further assay deals with T3, mouse Claudin 3 (mouse, UniProt Q9Z0G9 1-219).
T3 construct: whole, on cells; also called mCLDN3; mCLN3
T3 sequence (looked up): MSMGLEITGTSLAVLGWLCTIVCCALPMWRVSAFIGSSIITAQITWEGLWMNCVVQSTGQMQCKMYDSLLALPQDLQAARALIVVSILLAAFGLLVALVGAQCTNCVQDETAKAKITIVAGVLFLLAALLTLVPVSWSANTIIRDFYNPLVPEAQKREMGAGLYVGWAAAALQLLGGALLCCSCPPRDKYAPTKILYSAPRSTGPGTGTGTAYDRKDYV
The assay can be described thus: flow cytometry, mCLDN3/Ba/F3 cells, 2 ug/mL antibody. As to the method:
as §1, §2

The target of assay [6] is T4, human Claudin 4 with C-terminal FLAG tag (human, UniProt O14493 1-209).
T4 construct: whole, on cells; forced expression in Ba/F3 cells; also called hCLDN4; hCLN4
T4 sequence (looked up): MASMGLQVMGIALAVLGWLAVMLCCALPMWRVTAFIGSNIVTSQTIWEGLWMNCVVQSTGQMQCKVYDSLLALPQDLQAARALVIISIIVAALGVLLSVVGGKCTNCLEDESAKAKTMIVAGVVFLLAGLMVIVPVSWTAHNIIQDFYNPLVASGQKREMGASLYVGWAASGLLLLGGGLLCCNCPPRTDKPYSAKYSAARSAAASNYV
The assay can be described thus: flow cytometry, hCLDN4/Ba/F3 cells, 2 ug/mL antibody. As to the method: as §1, §2

The target of assay [7] is T1, human Claudin 3. The assay can be described thus: flow cytometry, MCF7 cells (endogenous Claudin 3), 5 ug/mL antibody. As to the method: as §1, §3
Assay [8] deals with T1, human Claudin 3. The assay can be described thus: flow cytometry, hCLDN3/Ba/F3 cells, 2 ug/mL antibody. As to the method:
as §1, §2

Assay [9] has as its target T5, human Claudin 1 with C-terminal FLAG tag (human, UniProt O95832 1-211).
T5 construct: whole, on cells; forced expression in Ba/F3 cells; also called hCLDN1; hCLN1
T5 sequence (looked up): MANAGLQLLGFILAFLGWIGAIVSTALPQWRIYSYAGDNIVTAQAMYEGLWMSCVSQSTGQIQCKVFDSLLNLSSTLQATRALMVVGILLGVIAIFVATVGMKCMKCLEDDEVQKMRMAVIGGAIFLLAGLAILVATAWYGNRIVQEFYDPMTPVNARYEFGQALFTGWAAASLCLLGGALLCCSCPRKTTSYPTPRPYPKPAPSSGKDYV
The assay can be described thus: flow cytometry, hCLDN1/Ba/F3 cells, 2 ug/mL antibody. As to the method:
as §1, §2

B1: CDN04 (antibody, mouse IgG1, kappa, V domains shown)
VH: EVQLQQSGPELVKPGASMKISCKASGYSFTGYTMNWMKQGHGKNLEWIGLINPYNGGTSYNQKFKDKATLTLDKSSSSAYMELLSLTSEDSAVYYCARGSYGSSYFDYWGQGTTLTVSS
VL: DIVMSQSPSSLAVSVGEKVTMSCKSSQSLLYGSNQKNYLAWYQQKPGQSPKLLIYWASTRESGVPDRFTGSGSGTDFTLTISSVKAEDLAVYYCQQYYNFPYTFGGGTKLEIKR
notes: mouse monoclonal, IgG1/IgK; also called CDN4
On to B1, for which the X geometric mean in the assay with human Claudin 3 [1] was 667; with human Claudin 3 [2], 28; with human Claudin 3 [3], 180; in [4], 9; with human Claudin 3 [5] it was 47; with mouse Claudin 3, 16. The X geometric mean stood at 14 in [6], 130 with human Claudin 3 [7], 366 in the assay with human Claudin 3 [8] and 11 in assay [9].

B2: CDN28 (antibody, mouse IgG1, kappa, V domains shown)
VH: EVQLQQSGPELVKPGASVKISCKASGYSFTGYFMNWVKQSHGKSLEWLGRINPYNGDTFYNQKFKGKATLTVDKSSNTAHMELRSLTSEDSAVYYCARGDGYYVTSLAYWGQGTLVTVSA
VL: NIVMTQSPKSMSMSVGERVTLSCKASENVVSYVSWFQQKPEQSPKLLIYGASNRYTGVPDRFTGSGSATDFTLTISSVQAEDLADYYCGQSYSYPLTFGAGTKLELKR
notes: mouse monoclonal, IgG1/IgK
Regarding B2, the X geometric mean with human Claudin 3 [1] came to 1990; with human Claudin 3 [2], 275; with human Claudin 3 [3], 1450; in [4], 9; with human Claudin 3 [5], 175; in assay [6], 27. In addition, the X geometric mean with human Claudin 3 [7] was 186; in the assay with human Claudin 3 [8] it was 1430; in assay [9], 12.

B3: CDN35 (antibody, V domains shown)
VH: EVQLQQSGPELVKPGASVKMSCKASGYTFTDYYMNWVKQSHGKSLEWIGRVNPSNGGTSYNQKFKGKATLTVDKSLSTAYMQLNSLTSEDSAVYYCARGLAYYSNSFTYWGQGTLVTVSA
VL: KIVLTQSPASLAVSLRQRATISCRASESVDSYGNSFMHWYQQKPGQPPKLLIYRASNLESGVPARFSGSGSRTDFTLTIDPVEADDAATYYCQQNNEDPWTFGGGTKLEIKR
notes: mouse monoclonal, IgG2a/IgK
For the molecule B3, the X geometric mean in the assay with human Claudin 3 [1] was 2300; with human Claudin 3 [2], 120; with human Claudin 3 [3], 869; in assay [4], 36; in the assay with human Claudin 3 [5], 176; in the assay with mouse Claudin 3, 1310. Also, the results for the X geometric mean (in assay [6]; in the assay with human Claudin 3 [7]; with human Claudin 3 [8]) were 59, 380 and 2150, respectively.

B4: CDN16 (antibody, mouse IgG2b, kappa, V domains shown)
VH: EVQLQQSGPELVKPGASVKMSCKASGYTFTDYYMNWVKQSHGKSLEWIGRVNPSNGGTSYNQKFKGKATLTVDKSLSTAYMQLNSLTSEDSAVYYCARGLAYYSNSFVYWGQGTLVTVSA
VL: KIVLTQSPASLAVSLRQRATISCRASESVDSYGNSFMHWYQQKPGQPPKLLIYRASNLESGVPARFSGSGSRTDFTLTIDPVEADDAATYYCQQNNEDPWTFGGGTKLEIKR
notes: mouse monoclonal, IgG2b/IgK
Consider B4, for which the X geometric mean with human Claudin 3 [1] is 2480; with human Claudin 3 [2], 125; with human Claudin 3 [3] it was 928; in assay [4] it was 9; in the assay with human Claudin 3 [5], 125; in the assay with mouse Claudin 3, 1270. Besides, the X geometric mean in assay [6] came out at 11; with human Claudin 3 [7], 361; in the assay with human Claudin 3 [8], 1980.

B5: CDN27 (antibody, V domains shown)
VH: EVQLQQSGPELVKPGASVKISCKASGYSFTGYFMNWVKQSHGKSLEWIGRINPYNGDTFYNQKFKGKATLTVDKSSSTAHMELRSLTSEDSAVYYCARSGDWYFDVWGAGTTVTVSS
VL: DIVLTQSPASLAVSLGQRATISCRASKSVSTSSYSYMHWYQQKPGQPPKLLIKFASYLESGVPARFSGSGSGTDFTLNIHPVEEEDAATYYCQHSREFPRTFGGGTKLEIKR
notes: mouse monoclonal, IgG2a/IgK
As for B5, the X geometric mean in the assay with human Claudin 3 [1] was determined as 2700; with human Claudin 3 [2], 308; with human Claudin 3 [3] it was 1790; in assay [4], 25; with human Claudin 3 [5], 202; with mouse Claudin 3 it was 50. The X geometric mean stood at 302 in [6], 310 with human Claudin 3 [7], 3340 with human Claudin 3 [8] and 42 in assay [9].

B6: CDN38 (antibody, V domains shown)
VH: EVQLQQSGPELVKPGASVKMSCKASGYSFTGYFMNWVKQSHGKSLEWIGRINPYNGDTFYNQKFKGKATLTVDKSSSTAHMELRSLTSEDSALYYCARSGNYVMDYWGQGTSVTVSS
VL: DIVLTQSPASLAVSLGQSVTISCRASESVEYYGTSLMQWYQQKPGQPPKLLIYGASNVESGVPARFSGSGSGTDFSLNIHPVEEDDIAMYFCQQSRKVPWTFGGGTKLEIKR
Take B6: the X geometric mean with human Claudin 3 [1] amounted to 258; in the assay with human Claudin 3 [2], 207; in the assay with human Claudin 3 [3] it was 215; in assay [4], 9; with human Claudin 3 [5], 63; in the assay with mouse Claudin 3 it was 115. Besides, the X geometric mean in assay [6] was 74; in the assay with human Claudin 3 [7], 61; with human Claudin 3 [8], 142; in assay [9] it was 7.
